Experimental findings from patent US20230149516A1, “USE OF PEPTIDYLGLYCINE ALPHA-AMIDATING MONOOXYGENASE (PAM) FOR THERAPEUTIC PURPOSE” (PAM THERAGNOSITICS GMBH, priority 2020, published 2023) are described below.

The nature of data set [1]: Half-life of recombinant PAM in rats (example 10, one-phase decay model). The format is in vivo. The note with it: example 10, single i.v. dose, FIG. 22. As for the experimental part:
FIG. 22: Half-life of recombinant PAM in rats, determined from one-phase decay model.
Endotoxin-free, recombinant PAM (SinoBiological) was buffer exchanged into sterile phosphate buffer saline (PBS, Dulbecco) and adjusted to 50 μg/mL. Sterile ascorbate solution for injection (200 mg/mL, vitamin C 1000, WÖRWAG Pharma) was purchased in a local pharmacy and adjusted under sterile conditions with PBS to 40 mg/mL. For combined injections of PAM and ascorbate, the compounds were prepared separately in equal volumes (100 μg/mL or 80 mg/mL for PAM and ascorbate, respectively). Both compounds were combined directly prior to injection to result in concentrations of 50 μg/mL for PAM and 40 mg/mL for ascorbate. Sterile PBS was used as placebo. All samples were stored at −80° C. until use. Animals, male Wistar rats, 2-3 month of age, were assigned into 4 groups (placebo, ascorbate, PAM, PAM+ascorbate) with 3 animals per group. Each animal in the individual group received 500 μl of the respective compound intravenously as a single dose injection. Blood sampling was performed as Li-Heparin 30 min prior to and 15, 30, 45, 60, 120, 180, 240 and 300 min post injection. PAM activities were determined as described in example 3.

A further data set deals with circulating ADM-Gly. As to the kind of experiment: bio-ADM increase after administration of recombinant human PAM in rats (example 9). The format is in vivo, Wistar-rat. Particulars: intravenously administered recombinant human PAM. As for the experimental part:
Two animals (Wistar-rat, male, 2-3 month of age) received 17 μg of recombinant human PAM (see example 1) as a single dose in a total volume of 500 μl (in phosphate-buffered saline). One control-animal received 500 μl of PBS. Blood sampling (Li-Heparin Plasma) was carried out 30 min prior to application and 30 min, 2 h, 4 h, 8 h, 24 h and 48 h, respectively, after application.

The next data set has as its system bio-ADM. As to the kind of experiment: Circulating bio-ADM concentration in rats after intravenous injection of PAM, ascorbate or both. The format is in vivo, Wistar rats.
The subject of a further data set is endogenous human ADM-Gly. The data set is described as follows: Conversion of endogenous ADM-Gly to bio-ADM in human Li-Heparin plasma with exogenous recombinant PAM. The format is biochemical. The note with it: 37° C. An excerpt:
ADM-Gly was quantified as based on Weber et al. (Weber et al. 2017. JALM 2(2): 222-233) for bioactive ADM with the following modifications: the tracer-antibody used for ADM-Gly detection, labelled with MACN-acridinium-NHS, was directed to the C-terminal glycine of ADM-Gly. The assay was calibrated with synthetic ADM-Gly. The limit of detection (LOD) was 10 pg/mL of ADM-Gly. Cross-reactivity of antibody directed to the C-terminal glycine of ADM with bio-ADM was in the range between 6 and 50% in a concentration dependent manner. All determined ADM-Gly concentrations were corrected for cross-reactivity as follows: For each ADM-Gly quantification additional quantification of bio-ADM in corresponding samples was performed using the Sphingotest® bio-ADM immunoassay. […] The determined signal (RLU) was used to calculate the false-positive ADM-Gly concentration (pg/mL) using the ADM-Gly calibration curve. This concentration was subtracted from the initially determined ADM-Gly concentration.
In a further experiment we investigated the formation of bio-ADM from endogenous ADM-Gly by native human plasma PAM and the effect of addition of exogenous recombinant human PAM. […] The concentration of bio-ADM in the reaction sample was quantified using the Sphingotest® bio-ADM immunoassay as described recently (Weber et al. 2017. JALM 2(2): 222-233). […]

Another data set has as its system PAM activity. As to the kind of experiment: Circulating PAM activity in rats after intravenous injection of PAM, ascorbate or both, measured without exogenous ascorbate. The data set is classed as in vivo, Wistar rats.

B1: recombinant human PAM: Recombinant human peptidylglycine alpha-amidating monooxygenase, aa 21-834, SEQ ID No. 10 (Example 1); Example 10 used endotoxin-free recombinant PAM from SinoBiological (protein, listed as Homo sapiens)
chain: SPLSVFKRFKETTRPFSNECLGTTRPVVPIDSSDFALDIRMPGVTPKQSDTYFCMSMRIPVDEEAFVIDFKPRASMDTVHHMLLFGCNMPSSTGSYWFCDEGTCTDKANILYAWARNAPPTRLPKGVGFRVGGETGSKYFVLQVHYGDISAFRDNNKDCSGVSLHLTRLPQPLIAGMYLMMSVDTVIPAGEKVVNSDISCHYKNYPMHVFAYRVHTHHLGKVVSGYRVRNGQWTLIGRQSPQLPQAFYPVGHPVDVSFGDLLAARCVFTGEGRTEATHIGGTSSDEMCNLYIMYYMEAKHAVSFMTCTQNVAPDMFRTIPPEANIPIPVKSDMVMMHEHHKETEYKDKIPLLQQPKREEEEVLDQGDFYSLLSKLLGEREDVVHVHKYNPTEKAESESDLVAEIANVVQKKDLGRSDAREGAEHERGNAILVRDRIHKFHRLVSTLRPPESRVFSLQQPPPGEGTWEPEHTGDFHMEEALDWPGVYLLPGQVSGVALDPKNNLVIFHRGDHVWDGNSFDSKFVYQQIGLGPIEEDTILVIDPNNAAVLQSSGKNLFYLPHGLSIDKDGNYWVTDVALHQVFKLDPNNKEGPVLILGRSMQPGSDQNHFCQPTDVAVDPGTGAIYVSDGYCNSRIVQFSPSGKFITQWGEESSGSSPLPGQFTVPHSLALVPLLGQLCVADRENGRIQCFKTDTKEFVREIKHSSFGRNVFAISYIPGLLFAVNGKPHFGDQEPVQGFVMNFSNGEIIDIFKPVRKHFDMPHDIVASEDGTVYIGDAHTNTVWKFTLTEKLEHRSVKKAGIEVQEIKEAEAVVGS
As to B1, in data set [1], the “half-life of recombinant human PAM in rats” value stood at 52.7 min. Besides, the “time of maximum bio-ADM increase” value with circulating ADM-Gly was found to be 4 h; with bio-ADM (intravenously administered, example 10) it was 30 min. In addition, the “bio-ADM concentration elevated by the factor (normalized to placebo)” value in the data set with bio-ADM (after 15 min) is given as 1.8; in the data set with bio-ADM (after 30 min) it was 2.4; in the data set with bio-ADM (after 45 min), 2; in the data set on bio-ADM (after 60 min) it was “not significantly different”. Moreover, the “bio-ADM concentration compared to the Placebo group” value with bio-ADM (after 120 minutes) was “not significantly different”. In addition, the “increase of the bio-ADM synthesis rate from endogenous human ADM-Gly (averaged factor)” value with endogenous human ADM-Gly (500 ng/ml exogenous recombinant PAM (approximate doubling of PAM concentration) in human Li-Heparin plasma pool with high ADM-Gly, at each time-point, vs native PAM alone) amounted to 1.8. Moreover, the “ADM-Gly consumption / shift of ADM-Gly/bio-ADM ratio” value in the data set on endogenous human ADM-Gly (500 ng/ml exogenous recombinant PAM in human Li-Heparin plasma) is recorded as “faster shift of the ADM-Gly/bio-ADM ratio towards bio-ADM”. Moreover, the “maximal elevation of PAM activity compared to placebo group (factor)” value with PAM activity (15 minutes past injection) amounted to 6. In addition, in the data set on PAM activity (120 min past injection), the “PAM activity compared to placebo group” value is on record as “not significantly different”. In addition, the “time of maximal elevation of PAM activity past injection” value in the data set with PAM activity (single i.v. injection) stood at 15 min. The “elevation of circulating PAM activity” value with PAM activity (single i.v. injection of 500 μl (PAM 50 μg/mL, ascorbate 40 mg/mL), vs placebo) is “highly significant elevation”. The “time PAM activity remained elevated after injection” value in the data set with PAM activity (single i.v. injection, significantly elevated for PAM and the combination) was found to be 60 min.
